Patent US20140235820A1, “METHODS AND COMPOSITIONS FOR MODULATING THE Wnt PATHWAY” (Genentech, Inc., priority 2010, published 2014)
Entries after “also recorded” stand apart in the source; their conditions may differ.

Tests used:
LRP6 E3E4 = biological target: T1, LRP6 E3E4 (Homo sapiens, UniProt O75581); assay: Biolayer interferometry binding to LRP6 E3E4
T1 construct: construct E3E4 amino acids E631-Q1253 of LPR6; made in house; host or cells: Tni insect cells (baculovirus, secreted)
T1 sequence (O75581 631-1253): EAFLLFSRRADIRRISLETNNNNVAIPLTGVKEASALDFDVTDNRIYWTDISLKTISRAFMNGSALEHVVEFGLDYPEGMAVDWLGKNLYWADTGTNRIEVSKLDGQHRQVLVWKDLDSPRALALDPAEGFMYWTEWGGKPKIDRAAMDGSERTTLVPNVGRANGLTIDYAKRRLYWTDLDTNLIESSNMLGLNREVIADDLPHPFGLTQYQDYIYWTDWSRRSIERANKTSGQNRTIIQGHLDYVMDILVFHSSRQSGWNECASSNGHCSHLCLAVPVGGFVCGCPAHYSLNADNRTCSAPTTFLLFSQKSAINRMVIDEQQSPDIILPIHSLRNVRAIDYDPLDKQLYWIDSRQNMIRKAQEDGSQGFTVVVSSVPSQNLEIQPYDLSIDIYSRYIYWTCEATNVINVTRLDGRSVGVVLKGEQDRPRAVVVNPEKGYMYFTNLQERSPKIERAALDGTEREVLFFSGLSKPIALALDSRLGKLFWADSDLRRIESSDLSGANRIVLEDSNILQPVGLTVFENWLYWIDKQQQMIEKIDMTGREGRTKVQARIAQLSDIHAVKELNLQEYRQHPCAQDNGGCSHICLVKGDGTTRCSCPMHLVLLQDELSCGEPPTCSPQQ
Summary of the method: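 Biotinylated human LRP6 ectodomain constructs (β-propeller-EGF units, e.g. E2 D235–E631, E1E2 A20–E631, E3E4 E631–Q1253) were loaded on streptavidin sensors in pH 8 Tris, 300 mM NaCl, 5% glycerol, 0.05% Triton X-100, then exposed to Dkks or sclerostin. Kd came from steady-state analysis, averaging ≥3 concentrations (R²>0.96).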

Wnt1-dependent signaling = assay: Wnt-dependent TOPbrite luciferase reporter assay, cells transfected with Wnt1; assay type: cell-based; conditions: cells stably transfected with reporter, transiently with Wnt1
Description: FIG. 12. Induction of a Wnt/β-catenin reporter in the presence or absence of wild-type and mutant inhibitors. Cells were transfected by Wnt1 (binds to LRP6 E1E2). Dkk1 and sclerostin variants, or the control inhibitor Fz8 CRD, were used at the indicated doses.
Wnt signaling was assessed either in mouse fibroblast L-cells or in HEK293s cells. The luciferase reporter assay in 293 cells was performed as described (52). The mouse fibroblast L-cell imaging assay was conducted essentially as described(53). Cells were treated with Wnt3a, Fz8 CRD ((US Patent Publication 20080299136; (54), LRP6, or Dkk1, or combinations of these proteins, as indicated and processed after an additional 6 h at 37° C./5% CO2.
To test whether the observed effects on binding between purified proteins were relevant to cellular signaling, Dkk1 and sclerostin activities were tested further in a Wnt-dependent TOPbrite luciferase reporter assay (52). Cells stably transfected with reporter were transfected transiently with Wnt1. The Wnt-transfected cells were treated with purified Dkk1 or sclerostin variants, and the effect on reporter induction was measured (FIG. 12). […] This is consistent with earlier observations that Wnt1 belongs to a class of Wnts signaling through the E1E2 portion of to LRP5/6 (11, 52). The Dkk1 and sclerostin mutants show activities consistent with their binding to LRP6 (FIG. 12). Sclerostin Ile119Glu (“NXI” motif) is impaired relative to wild-type in its ability to inhibit Wnt1-driven signaling, as is Dkk1 Ile42Glu.

sclerostin: Sclerostin protein, Wnt pathway inhibitor, expressed in insect cells (LPNAIGR)
binding to LRP6 E3E4 (in words) (LRP6 E3E4): does not interact | inhibition of Wnt1-dependent signaling (reporter induction) (Wnt1-dependent signaling): strong inhibition

Dkk1: Dickkopf 1 protein, Wnt pathway inhibitor, expressed in insect cells (NSNAIKN)
Kd (LRP6 E3E4; steady state, read-out: affinity for LRP6 E3E4): 0.051 µM | inhibition of Wnt1-dependent signaling (reporter induction) (Wnt1-dependent signaling): strong inhibition

B1: Dkk1 Ile42Glu (ligand, human, UniProt O94907 32-266, looked up)
chain: TLNSVLNSNAEKNLPPPLGGAAGHPGSAVSAAPGILYPGGNKYQTIDNYQPYPCAEDEECGTDEYCASPTRGGDAGVQICLACRKRRKRCMRHAMCCPGNYCKNGICVSSDQNHFRGEIEETITESFGNDHSTLDGYSRRTTLSSKMYHTKGQEGSVCLRSSDCASGLCCARHFWSKICKPVLKEGQVCTKHRRKGSHGLEIFQRCYCGEGLSCRIQKDHHQASNSSRLHTCQRH
notes: also called Dkk1 I42E
binding to LRP6 E3E4 (in words) (LRP6 E3E4): not to E3E4 | inhibition of Wnt1-dependent signaling (reporter induction) (Wnt1-dependent signaling): impaired

B2: Dkk1 K211E (ligand, human, UniProt O94907 32-266, looked up)
chain: TLNSVLNSNAIKNLPPPLGGAAGHPGSAVSAAPGILYPGGNKYQTIDNYQPYPCAEDEECGTDEYCASPTRGGDAGVQICLACRKRRKRCMRHAMCCPGNYCKNGICVSSDQNHFRGEIEETITESFGNDHSTLDGYSRRTTLSSKMYHTKGQEGSVCLRSSDCASGLCCARHFWSKICEPVLKEGQVCTKHRRKGSHGLEIFQRCYCGEGLSCRIQKDHHQASNSSRLHTCQRH
notes: also called Dkk1 Lys211Glu
binding to LRP6 E3E4 (in words) (LRP6 E3E4): interfered with binding; also recorded: affect binding | inhibition of Wnt1-dependent signaling (reporter induction) (Wnt1-dependent signaling): efficiently inhibits
